From article PMC4081096, “GtrS and GltR form a two-component system: the central role of 2-ketogluconate in the expression of exotoxin A and glucose catabolic enzymes in Pseudomonas aeruginosa” (Nucleic Acids Research, 2014)

Experiments:
GtrS [1] = target: T1, GtrS (Pseudomonas aeruginosa, UniProt Q9HZ47); experiment: isothermal titration calorimetry with purified recombinant GtrS-LBD; type: binding
[2] = target: T2, GltR (Pseudomonas aeruginosa PAO1) (UniProt G3XCY6); experiment: EMSA; details: EMSA: 2 nM 32P-DNA, 50 mM Tris-HCl pH 7.5, 10 mM NaCl, 0.5 M Mg acetate (so in the source), 0.1 mM EDTA, 1 mM DTT, 5% glycerol, 20 ug/ml poly(dI-dC), 200 ug/ml BSA …
T2 sequence: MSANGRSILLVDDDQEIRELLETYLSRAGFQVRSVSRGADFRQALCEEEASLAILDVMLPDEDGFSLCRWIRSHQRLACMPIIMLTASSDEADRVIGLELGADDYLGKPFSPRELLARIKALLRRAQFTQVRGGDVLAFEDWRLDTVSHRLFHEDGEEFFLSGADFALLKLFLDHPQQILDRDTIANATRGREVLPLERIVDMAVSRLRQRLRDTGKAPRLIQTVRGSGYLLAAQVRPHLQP

[3] = tested on: GltR (Pseudomonas aeruginosa PAO1); experiment: EMSA; details: EMSA: 2 nM 32P-DNA, 50 mM Tris-HCl pH 7.5, 10 mM NaCl, 0.5 M Mg acetate (so in the source), 0.1 mM EDTA, 1 mM DTT, 5% glycerol, 20 ug/ml poly(dI-dC), 200 ug/ml BSA …
GtrS [4] = target: T1, GtrS; experiment: isothermal titration calorimetry with purified recombinant GtrS-LBD; 2-KG also accelerates autophosphorylation of full-length GtrS in membranes; type: binding

T1 sequence (Q9HZ47 30-197): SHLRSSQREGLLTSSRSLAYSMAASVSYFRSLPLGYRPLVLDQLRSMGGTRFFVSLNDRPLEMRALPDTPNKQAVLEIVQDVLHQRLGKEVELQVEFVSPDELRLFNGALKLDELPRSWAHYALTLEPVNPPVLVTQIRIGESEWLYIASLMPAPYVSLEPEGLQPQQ

Compound	K half [3] [nM]	also measured
O=C(O)[C@H](O)[C@@H](O)[C@H](O)[C@H](O)COP(=O)(O)O [6PG, 6-phosphogluconate]	–	Kd (GtrS [1]): 98 ± 33 µM
AGATCTTGCAGCTTTACCGAGAGCCTCAACGGCTGGCGCTGATTCTGATAGGTCGATATCCGCCGGCGCTTGGCTGGCGGCTGTCTCTCCGGCAACATCTGCCGACCGTCCCGCCCTGGCGCGGGGCATTGCGGTTCAACGACGATGAATAACGACAACAAGAGAAGCGCCGGCGGCCTCGGCCTGGTCGGCGATATCGCTGCAG (double strand) [Pglk promoter fragment]	–	K half [2]: 1000 nM
PtoxA promoter fragment	1000	–
Pglk promoter fragment	1000	–
PoprB promoter fragment	1000	–
Pedd/gap-1 promoter fragment	1000	–
O=C(O)C(=O)[C@@H](O)[C@H](O)[C@H](O)CO [2-KG, 2-ketogluconate]	–	Kd (GtrS [4]): 4.95 ± 0.8 µM
